{
  "source": "patent US20050208103A1",
  "about": "“Targeted transscleral controlled release drug delivery to the retina and choroid” (priority 1999, published 2005)",
  "key": {"[1]": {"details": "Stokes-Einstein radius; cited from earlier work"}, "[2]": {"assay_type": "in vitro ADME, rabbit", "details": "not told", "method": "Dutch-belted rabbits (Pine Acres Rabbitry, Vermont, Mass.), each weighing 2-3 kg, were anesthetized with intramuscular 40 mg/kg ketamine (Abbott, N. Chicago, Ill.) and 10 mg/kg xylazine (Bayer, Shawnee Mission, Kans.). Scleral thickness was measured using a RK-5000 ultrasound pachymeter (KMI Surgical Products, West Chester, Pa.). The eyes were enucleated immediately […] sacrifice and immersed in Unisol (Alcon, Ft. Worth, Tex.) for 10 minutes or less. The adherent muscles were excised and episcleral tissue was removed with a sterile gauze sponge. Areas free of nerve and vessel emissaries were used to obtain 7×12 mm slices of sclera under microscopic caliper guidance. Each piece of sclera was used on the day of isolation.\nA 5×10 mm window, 2 mm from the bottom, was created on one face of a spectrophotometry polystyrene cuvette (Sigma, St. Louis, Mo.) using a Bridgeport vertical milling machine (Bridgeport, Bridgeport, Conn.), and a piece of sclera was blotted dry and placed over this window without stretching so as not to induce asymmetric stresses. A small amount of cyanoacrylate tissue adhesive (Ellman International, Hewlett, N.Y.) was applied to the entire boundary of the tissue rim to seal its cut surface to the cuvette and prevent leakage around the sclera, and a second identical cuvette was aligned with the first cuvette and glued in place over the tissue. After the glue polymerized, within 3 to 4 minutes, the cuvette facing the “orbital” surface of the sclera was filled with Unisol. The apparatus was discarded if leakage into the “uveal” chamber was observed. Unisol was replaced with diffusion medium (see below) and the apparatus was incubated at 37° C. in 5% CO2 atmosphere for 1 hour to restore normal hydration and temperature.\nHanks' balanced salt solution without phenol red, containing 1% glutamine-penicillin and streptomycin, tetracycline (48 μg/ml), and aprotinin (1.5 μg/ml) (all from Sigma), was used as the diffusion medium. Tetracycline and aprotinin were excluded from the medium for certain experiments with FITC-BSA to evaluate the effect of these proteolysis inhibitors on scleral permeability. The pH of all solutions ranged from 7.41 to 7.45.\nFluorescein isothiocyanate (FITC) conjugated dextrans ranging in molecular weight from 4 kDa to 150 kDa, FITC-bovine serum albumin (BSA), FITC-rabbit IgG (all from Sigma), rhodamine-conjugated dextran of molecular weight 70 kDa (Molecular Probes, Eugene, Oreg.), and sodium fluorescein (Akorn, Abita Springs, La.) were studied. At least 5 experiments were performed on each compound. […] Samples were protected from light at all times before fluorescence measurements. […]"}, "[3]": {"assay": "Protein precipitation with trichloroacetic acid to test FITC linkage", "parameters": "species or system rabbit", "details": "supernatant fluorescence"}},
  "data": [
    {"compound": "O=C([O-])c1ccccc1-c1c2ccc(=O)cc-2oc2cc([O-])ccc12.[Na+].[Na+]", "note": "[Sodium fluorescein, sodium fluorescein]", "values": [
      {"measurement": "Molecular radius", "setting": "[1]", "value": 0.5, "unit": "nm"},
      {"measurement": "Permeability coefficient", "setting": "[2]", "value": "76.3±24.1 ×10^−6 cm/s"},
      {"measurement": "Permeability coefficient (mean ± sd)", "setting": "[2]", "value": "84.5±16.1 ×10^−6 cm/s"}
    ]},
    {"compound": "FITC-BSA: Fluorescein isothiocyanate conjugated bovine serum albumin (Sigma)", "values": [
      {"measurement": "dissociation of the FITC conjugate after diffusion through sclera", "setting": "[3]", "value": "no significant dissociation"},
      {"measurement": "Molecular radius", "setting": "[1]", "value": 3.62, "unit": "nm"},
      {"measurement": "Permeability coefficient", "setting": "[2]", "value": "5.21±1.85 ×10^−6 cm/s"},
      {"measurement": "Permeability coefficient (mean ± sd)", "setting": "[2]", "value": "5.49±2.12 ×10^−6 cm/s"}
    ]}
  ]
}
